Laboratory results as given in patent US9175053B2, “Chemical preparation of ubiquitin thioesters and modifications thereof” (BEN-GURION UNIVERSITY OF THE NEGEV RESEARCH AND DEVELOPMENT …, priority 2010, dated 2015).
“Also recorded” adds a separate entry of the source.

Molecular target: T1, recombinant human ubiquitin C-terminal hydrolase L3 (UCH-L3) (Homo sapiens, UniProt P15374)
T1 construct: purchased Aldrich
T1 sequence (P15374 1-230): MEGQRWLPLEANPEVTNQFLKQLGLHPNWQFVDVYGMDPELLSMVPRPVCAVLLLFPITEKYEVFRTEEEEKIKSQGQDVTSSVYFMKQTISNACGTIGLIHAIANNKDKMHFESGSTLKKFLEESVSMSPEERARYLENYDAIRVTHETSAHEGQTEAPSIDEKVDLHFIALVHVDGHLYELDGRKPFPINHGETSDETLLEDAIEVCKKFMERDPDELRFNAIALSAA
Assay: Enzymatic cleavage of isopeptide by ubiquitin C-terminal hydrolase UCH-L3
Assay type: biochemical
Details: ~100 μM peptide, 12 hours at 37° C., Tris/NaCl/DTT buffer
Description: Purified peptide 8 was dissolved in 482 μL of assay buffer (50 mM Tris, 150 mM NaCl, 1 mM DTT, pH 7.5) to a final concentration of ˜100 μM and reacted with recombinant human ubiquitin C-terminal hydrolase L3 (UCH-L3, Aldrich). 10 μg of UCH-L3 in 15.5 μL of assay buffer containing 50 mM Tris, 150 mM NaCl, 12 mM DTT, pH 8.0 was incubated for 20 minutes at 25° C. To the reduced UCH-L3 was then added 8 in 187 μL. […] The reaction was analyzed using C-4 analytical RP-HPLC employing a gradient of 10-60% B for 30 minutes, in order to identify the hydrolysis.

8: α-synuclein(1-17) model peptide ubiquitylated with synthetic Ub-SR via mercaptolysine, then desulfurized (Scheme 6) [Peptide 8]
hydrolysis of the ubiquitylated peptide by UCH-L3 (RP-HPLC): UCH-L3 substrate; also recorded: complete hydrolysis
